Measurements from US20190360025A1.

Legend:
[1] = biological target: vascular endothelial growth factor (VEGF), R&D Systems 293-VE-010 (human) (UniProt P15692); experiment: c-PLA, buffer; VEGF 1.00E-09 M
[2] = biological target: vascular endothelial growth factor (VEGF), R&D Systems 293-VE-010 (human) (UniProt P15692); experiment: c-PLA, buffer; VEGF 1.00E-10 M
[3] = biological target: vascular endothelial growth factor (VEGF), R&D Systems 293-VE-010 (human) (UniProt P15692); experiment: c-PLA, buffer; VEGF 1.00E-11 M
[4] = biological target: vascular endothelial growth factor (VEGF), R&D Systems 293-VE-010 (human) (UniProt P15692); experiment: t-PLA, buffer; VEGF 1.00E-09 M
[5] = biological target: vascular endothelial growth factor (VEGF), R&D Systems 293-VE-010 (human) (UniProt P15692); experiment: c-PLA, human plasma; VEGF 1.00E-09 M
[6] = biological target: vascular endothelial growth factor (VEGF), R&D Systems 293-VE-010 (human) (UniProt P15692); experiment: c-PLA, human plasma; VEGF 1.00E-14 M
[7] = biological target: vascular endothelial growth factor (VEGF), R&D Systems 293-VE-010 (human) (UniProt P15692); experiment: t-PLA, human plasma; VEGF 1.00E-08 M
[8] = biological target: vascular endothelial growth factor (VEGF), R&D Systems 293-VE-010 (human) (UniProt P15692); experiment: t-PLA, chicken plasma; VEGF 1.00E-10 M
[9] = biological target: vascular endothelial growth factor (VEGF), R&D Systems 293-VE-010 (human) (UniProt P15692); experiment: c-PLA with preamplification; VEGF 1.00E-08 M
[10] = biological target: vascular endothelial growth factor (VEGF), R&D Systems 293-VE-010 (human) (UniProt P15692); experiment: c-PLA with preamplification; VEGF 1.00E-14 M
[11] = biological target: vascular endothelial growth factor (VEGF), R&D Systems 293-VE-010 (human) (UniProt P15692); experiment: t-PLA with preamplification; VEGF 1.00E-10 M
[12] = biological target: tumor necrosis factor alpha (TNF-α), R&D Systems 210-TA-005 (UniProt P01375); experiment: c-PLA, buffer; TNF-α 5.00E-07 M
UniProt P01375, sequence (P01375 77-233 limits assumed): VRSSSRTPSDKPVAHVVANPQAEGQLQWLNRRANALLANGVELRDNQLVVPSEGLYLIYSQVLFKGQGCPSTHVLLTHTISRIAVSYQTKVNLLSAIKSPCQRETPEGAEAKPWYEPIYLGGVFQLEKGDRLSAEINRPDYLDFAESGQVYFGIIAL

[13] = biological target: tumor necrosis factor alpha (TNF-α), R&D Systems 210-TA-005 (UniProt P01375); experiment: t-PLA, buffer; TNF-α 1.00E-09 M
[14] = biological target: tumor necrosis factor alpha (TNF-α), R&D Systems 210-TA-005 (UniProt P01375); experiment: t-PLA, buffer; TNF-α 1.00E-10 M
[15] = biological target: tumor necrosis factor alpha (TNF-α), R&D Systems 210-TA-005 (UniProt P01375); experiment: c-PLA 1X probes, buffer; TNF-α 1.00E-10 M
[16] = biological target: tumor necrosis factor alpha (TNF-α), R&D Systems 210-TA-005 (UniProt P01375); experiment: c-PLA 1X probes, buffer; TNF-α 5.00E-07 M
[17] = biological target: tumor necrosis factor alpha (TNF-α), R&D Systems 210-TA-005 (UniProt P01375); experiment: c-PLA 10X probes, buffer; TNF-α 1.00E-10 M
[18] = biological target: tumor necrosis factor alpha (TNF-α), R&D Systems 210-TA-005 (UniProt P01375); experiment: c-PLA 10X probes, buffer; TNF-α 5.00E-07 M
[19] = biological target: tumor necrosis factor alpha (TNF-α), R&D Systems 210-TA-005 (UniProt P01375); experiment: c-PLA 1X probes, human plasma; TNF-α 1.00E-08 M
[20] = biological target: tumor necrosis factor alpha (TNF-α), R&D Systems 210-TA-005 (UniProt P01375); experiment: c-PLA 1X probes, human plasma; TNF-α 1.00E-10 M
[21] = biological target: tumor necrosis factor alpha (TNF-α), R&D Systems 210-TA-005 (UniProt P01375); experiment: c-PLA 1X probes, human plasma; TNF-α 1.00E-13 M
[22] = biological target: tumor necrosis factor alpha (TNF-α), R&D Systems 210-TA-005 (UniProt P01375); experiment: t-PLA 1X probes, human plasma; TNF-α 1.00E-11 M
[23] = biological target: tumor necrosis factor alpha (TNF-α), R&D Systems 210-TA-005 (UniProt P01375); experiment: t-PLA 1X probes, human plasma; TNF-α 1.00E-13 M
[24] = biological target: tumor necrosis factor alpha (TNF-α), R&D Systems 210-TA-005 (UniProt P01375); experiment: c-PLA 10X probes, human plasma; TNF-α 1.00E-11 M
[25] = biological target: tumor necrosis factor alpha (TNF-α), R&D Systems 210-TA-005 (UniProt P01375); experiment: c-PLA 10X probes, human plasma; TNF-α 1.00E-12 M
[26] = biological target: tumor necrosis factor alpha (TNF-α), R&D Systems 210-TA-005 (UniProt P01375); experiment: c-PLA 10X probes, human plasma; TNF-α 5.00E-07 M
[27] = biological target: tumor necrosis factor alpha (TNF-α), R&D Systems 210-TA-005 (UniProt P01375); experiment: t-PLA 10X probes, human plasma; TNF-α 1.00E-08 M
[28] = biological target: tumor necrosis factor alpha (TNF-α), R&D Systems 210-TA-005 (UniProt P01375); experiment: t-PLA 10X probes, human plasma; TNF-α 1.00E-12 M

UniProt P15692, sequence (P15692 other isoform, or with tags, fused parts or gaps limits assumed): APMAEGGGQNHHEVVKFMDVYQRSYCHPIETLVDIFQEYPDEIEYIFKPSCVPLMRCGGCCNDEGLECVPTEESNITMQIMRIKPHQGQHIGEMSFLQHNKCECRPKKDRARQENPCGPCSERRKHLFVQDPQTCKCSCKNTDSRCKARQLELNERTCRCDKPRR

## affinity-purified polyclonal anti-VEGF antibody (R&D Systems AF-293-NA)
[1]
  Counts: 778000
  SBR: 26200
[2]
  Counts: 95900
  SBR: 3230
[3]
  Counts: 4820
  SBR: 162
[4]
  Counts: 3.98e+09
  SBR: 11500
[5]
  Counts: 40500
  SBR: 156
[6]
  Counts: 292
  SBR: 1.1
[7]
  Counts: 8.23e+07
  SBR: 51
[8]
  Counts: 9.58e+07
  SBR: 1430
[9]
  Counts: 8.14e+07
  SBR: 1370
[10]
  Counts: 90200
  SBR: 1.5
[11]
  Counts: 1.78e+08
  SBR: 1010

## affinity-purified polyclonal anti-TNF-α antibody (R&D Systems AF-210-NA)
[12]
  Counts: 33000
  SBR: 2930
[13]
  Counts: 1.98e+07
  SBR: 116
[14]
  SBR: 15.9
[15]
  Counts: 260
[16]
  Counts: 33000
  SBR: 2070
[17]
  Counts: 4620
[18]
  Counts: 650000
  SBR: 3550
[19]
  Counts: 4770
  SBR: 63
[20]
  Counts: 331
  SBR: 4.4
[21]
  Counts: 83.7
  SBR: 1.1
[22]
  Counts: 745000
  SBR: 3.1
[23]
  Counts: 203000
[24]
  Counts: 2970
  SBR: 1.4
[25]
  Counts: 2260
[26]
  Counts: 495000
  SBR: 230
[27]
  Counts: 3.81e+08
  SBR: 33
[28]
  SBR: 2.4
